Test results as given in article PMC11161628, “Omecamtiv mecarbil and Mavacamten target the same myosin pocket despite opposite effects in heart contraction” (Nature Communications, 2024).

Target: the molecule itself
Test: crystal structure; PPS-S1-Mava (crystal type B): S1 with Mg.ADP.BeFx and 5 mM Mavacamten, trypsin 1:500 (w:w), hanging drop at 4 °C, 20.5% PEG3350, 7.5% NaTacsimate pH 6.0, 5 mM TCEP; two molecules per asymmetric unit; 2.61 Å

B1: Bovine β-cardiac myosin S1 fragment, heavy chain (domain or fragment, UniProt Q9BE39 1-810, looked up)
chain: MVDAEMAAFGEAAPYLRKSEKERLEAQTRPFDLKKDVFVPDDKEEFVKATILSREGGKVTAETEHGKTVTVKEDQVLQQNPPKFDKIEDMAMLTFLHEPAVLYNLKERYASWMIYTYSGLFCVTINPYKWLPVYNAEVVAAYRGKKRSEAPPHIFSISDNAYQYMLTDRENQSILITGESGAGKTVNTKRVIQYFAVIAAIGDRSKKEQATGKGTLEDQIIQANPALEAFGNAKTVRNDNSSRFGKFIRIHFGATGKLASADIETYLLEKSRVIFQLKAERDYHIFYQILSNKKPELLDMLLITNNPYDYAFISQGETTVASIDDAEELMATDNAFDVLGFTTEEKNSMYKLTGAIMHFGNMKFKLKQREEQAEPDGTEEADKSAYLMGLNSADLLKGLCHPRVKVGNEYVTKGQNVQQVVYAKGALAKAVYERMFNWMVTRINATLETKQPRQYFIGVLDIAGFEIFDFNSFEQLCINFTNEKLQQFFNHHMFVLEQEEYKKEGIEWEFIDFGMDLQACIDLIEKPMGIMSILEEECMFPKATDMTFKAKLFDNHLGKSSNFQKPRNIKGKPEAHFSLIHYAGTVDYNIIGWLQKNKDPLNETVVDLYKKSSLKMLSSLFANYAGFDTPIEKGKGKAKKGSSFQTVSALHRENLNKLMTNLRSTHPHFVRCIIPNETKSPGVIDNPLVMHQLRCNGVLEGIRICRKGFPNRILYGDFRQRYRILNPAAIPEGQFIDSRKGAEKLLGSLDIDHNQYKFGHTKVFFKAGLLGLLEEMRDERLSRIITRIQAQSRGVLSRMEFKKLLERRDS
notes: Native protein cut by proteases, not a recombinant construct; also called bovine cardiac S1 fragment; PPS-S1-Mava; source: purified from frozen bovine heart (Pel-Freez Biologicals); limited chymotryptic digestion of the full-length myosin, Mono-Q; trypsin present in the crystallization drops
binding result: binds
